The target of data set [1] is DosR (D54E, activated form; called DosR/wild type in EMSA) D54E (Mycobacterium tuberculosis) (UniProt P9WMF9). The data set is described as follows: EMSA.
Data set [2] deals with DosR M194term (helix alpha10 truncated) D54E;del194-217 (Mycobacterium tuberculosis) (UniProt P9WMF9). Kind of data set: EMSA. (In general: Mobility shift assays separate free from complexed probe on a gel.)

Take “GGCGGTTGGCAGACAACAGGGTCAATGGTCCCCAAGTGGATCACCGACGGGCGCGGACAAATGGCCCGCGCTTCGGGGACTTCTGTCCCTAGCCCTGGCCACGATGGGCTGGTCGGATCAAAGGCATCCGTTTCCATCGATTAGGAGGCAGGCACGTACGAAGGAAGGAT (double strand) [hspX promoter PCR product]”: the values for the binding entry in data set [1] and in data set [2] were “binds” and “binds more weakly”, respectively.

The record behind these values is article doi:10.1101/2025.10.11.681782.
